Test results published in patent publication US20240158497A1 (published 2024).

Tests used:
[1] = target: T1, human LEPR extracellular domain expressed with a C-terminal myc-myc-hexahistidine tag (human, UniProt P48357 22-839); test: SPR Biacore 4000, bsAb captured by anti-human Fc, 37 C
T1 construct: Monomeric reagent; the whole entry is the construct with its tag; also called hLEPR-MMH; hLEPR.mmh
Experimental: (§1) Equilibrium dissociation constants (KD values) for LEPR and GP130 binding to purified anti-LEPR/GP130 bispecific antibodies were determined using a real-time surface plasmon resonance biosensor using a Biacore 4000 instrument. All binding studies were performed in 10 mM HEPES, 150 mM NaCl, 3 mM EDTA, and 0.05% v/v Surfactant Tween-20, pH 7.4 (HBS-ET) running buffer at 25° C. and 37° C. The Biacore sensor surface was first derivatized by amine coupling with a monoclonal mouse anti-human Fc antibody (GE, #BR-1008-39) to capture anti-LEPR/GP130 bispecific antibodies. […] Different concentrations of LEPR or GP130 reagents were first prepared in HBS-ET running buffer (100 nM-3.7 nM; 3-fold serial dilution) and were injected over anti-human Fc captured anti-LEPR/GP130 bispecific antibody surface for 4 minutes at a flow rate of 30 μL/minute, while the dissociation of bispecific antibody bound LEPR or GP130 reagent was monitored for 10 minutes in HBS-ET running buffer. Kinetic association (kₐ) and dissociation (kd) rate constants were determined by fitting the real-time binding sensorgrams to a 1:1 binding model with mass transport limitation using Scrubber 2.0c curve-fitting software. Binding dissociation equilibrium constants (KD) and dissociative half-lives (t ½) were calculated from the kinetic rate constants as: […]

[2] = target: T2, Macaca Fascicularis LEPR extracellular domain expressed with a C-terminal myc-myc-hexahistidine tag (Macaca fascicularis, UniProt Q9MYL0 22-837 (rhesus entry)); test: as above
T2 construct: Monomeric reagent; the whole entry is the construct with its tag; also called mfLEPR-MMH
Experimental: as §1

[3] = target: T1, human LEPR extracellular domain …; test: SPR Biacore 4000, bsAb captured by anti-human Fc, 25 C
Experimental: as §1

[4] = target: T2, Macaca Fascicularis LEPR extracellular …; test: as above
Experimental: as §1

T2 sequence (Q9MYL0 other isoform, or with tags, fused parts or gaps): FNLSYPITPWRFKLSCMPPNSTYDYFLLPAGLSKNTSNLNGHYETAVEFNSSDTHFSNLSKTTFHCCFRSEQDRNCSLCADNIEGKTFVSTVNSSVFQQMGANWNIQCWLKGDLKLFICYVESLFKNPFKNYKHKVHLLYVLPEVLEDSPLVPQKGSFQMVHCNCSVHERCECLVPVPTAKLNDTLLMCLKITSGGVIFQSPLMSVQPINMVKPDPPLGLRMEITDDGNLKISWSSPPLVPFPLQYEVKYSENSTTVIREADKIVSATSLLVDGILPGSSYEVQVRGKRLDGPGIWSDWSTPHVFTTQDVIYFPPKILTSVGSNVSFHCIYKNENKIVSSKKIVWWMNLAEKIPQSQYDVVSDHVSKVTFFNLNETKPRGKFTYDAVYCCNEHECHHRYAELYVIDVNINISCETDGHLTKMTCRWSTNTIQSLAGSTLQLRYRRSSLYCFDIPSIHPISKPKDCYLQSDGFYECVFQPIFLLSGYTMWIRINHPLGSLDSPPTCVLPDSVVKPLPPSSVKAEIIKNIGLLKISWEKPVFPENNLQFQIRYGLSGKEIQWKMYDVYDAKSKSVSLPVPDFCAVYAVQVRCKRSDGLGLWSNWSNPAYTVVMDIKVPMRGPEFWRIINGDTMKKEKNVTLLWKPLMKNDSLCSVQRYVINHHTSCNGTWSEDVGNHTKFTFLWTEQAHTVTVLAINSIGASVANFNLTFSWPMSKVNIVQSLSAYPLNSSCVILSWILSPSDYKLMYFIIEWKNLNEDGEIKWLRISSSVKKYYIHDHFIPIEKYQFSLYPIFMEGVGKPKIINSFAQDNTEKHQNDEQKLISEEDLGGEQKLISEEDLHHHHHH
T1 sequence (P48357 other isoform, or with tags, fused parts or gaps): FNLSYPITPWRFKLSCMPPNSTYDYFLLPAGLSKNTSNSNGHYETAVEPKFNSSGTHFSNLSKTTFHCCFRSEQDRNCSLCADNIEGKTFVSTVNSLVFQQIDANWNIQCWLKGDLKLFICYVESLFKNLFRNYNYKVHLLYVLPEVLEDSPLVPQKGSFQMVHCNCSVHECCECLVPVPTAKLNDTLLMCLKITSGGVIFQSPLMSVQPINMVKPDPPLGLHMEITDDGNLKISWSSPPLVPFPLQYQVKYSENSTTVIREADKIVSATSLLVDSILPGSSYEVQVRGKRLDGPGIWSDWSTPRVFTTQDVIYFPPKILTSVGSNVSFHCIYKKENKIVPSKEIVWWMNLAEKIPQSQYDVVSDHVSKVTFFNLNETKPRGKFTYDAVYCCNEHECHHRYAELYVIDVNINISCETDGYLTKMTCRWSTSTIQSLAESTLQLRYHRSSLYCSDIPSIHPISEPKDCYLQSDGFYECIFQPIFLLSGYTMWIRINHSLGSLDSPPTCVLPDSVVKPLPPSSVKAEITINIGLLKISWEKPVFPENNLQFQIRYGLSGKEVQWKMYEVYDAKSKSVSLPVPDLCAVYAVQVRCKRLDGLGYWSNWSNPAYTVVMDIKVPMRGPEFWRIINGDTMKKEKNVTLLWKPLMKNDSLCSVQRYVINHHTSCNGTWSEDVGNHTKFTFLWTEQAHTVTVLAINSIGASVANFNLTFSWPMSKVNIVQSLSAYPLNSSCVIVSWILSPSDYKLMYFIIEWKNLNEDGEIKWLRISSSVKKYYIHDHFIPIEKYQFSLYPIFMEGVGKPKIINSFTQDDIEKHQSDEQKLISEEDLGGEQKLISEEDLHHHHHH

Binder	100 nM hLEPR-MMH Bound (RU) [1] [RU]	Kd [1] [nM]	koff [1] [s⁻¹]	kon [1] [M⁻¹ s⁻¹]	t½ [1] [min]	100 nM mfLEPR-MMH Bound (RU) [2] [RU]	Kd [2] [nM]	koff [2] [s⁻¹]	kon [2] [M⁻¹ s⁻¹]	t½ [2] [min]	100 nM hLEPR-MMH Bound (RU) [3] [RU]	Kd [3] [nM]	koff [3] [s⁻¹]	kon [3] [M⁻¹ s⁻¹]	t½ [3] [min]	100 nM mfLEPR-MMH Bound (RU) [4] [RU]	Kd [4] [nM]	koff [4] [s⁻¹]	kon [4] [M⁻¹ s⁻¹]	t½ [4] [min]
bsAb19153D (bispecific antibody, V domains shown, common light chain) VH 1: QVQLVESGGGVVQPGRSLRLSCTASGFTFSSYAMYWVRQAPGKGLEWVSVIYYDGSYKYYADSVKGRFTISRDNSKNTLYLQMDSLRAEDTAVYYCASYNWNYWYFDFWGRGTLVTVSS VH 2: QVQLVQSGAEVMKPGASVKVSCRASGYTFSSYDINWVRQAPGQGLEWMGWISTATGNTNYPQKVQGRVTMTTDTSTNTAYMELRSLRSDDTAVYYCTREGNSKGWLDPWGQGTLVTVSS VL: not shown	65	19.7	0.000791	40100	15	158	8.81	0.00058	65800	20	40	6.46	0.000165	25500	70	102	2.96	0.000126	42600	92
bsAb19152D (bispecific antibody, V domains shown, common light chain) VH 1: QVQLVESGGGVVQPGRSLRLSCTASGFTFSSYAMYWVRQAPGKGLEWVSVIYYDGSYKYYADSVKGRFTISRDNSKNTLYLQMDSLRAEDTAVYYCASYNWNYWYFDFWGRGTLVTVSS VH 2: EVQLVQSGAEVKKPGESLKISCKGSGYSFTSYWIDWVRQMPGKGLEWMGIIYPDDSDTRYSPSFQGQVTMSVDKSISTAYLQWSSLKASDTAIYYCARHERGIVEAGTDYYYYYGMDVWGQGTTVTVSS VL: not shown	74	20.8	0.000787	37700	15	169	5.9	0.000589	99900	20	47	6.75	0.000165	24500	70	113	2.97	0.000124	41800	93
bsAb19150D (bispecific antibody, V domains shown, common light chain) VH 1: QVQLVESGGGVVQPGRSLRLSCTASGFTFSSYAMYWVRQAPGKGLEWVSVIYYDGSYKYYADSVKGRFTISRDNSKNTLYLQMDSLRAEDTAVYYCASYNWNYWYFDFWGRGTLVTVSS VH 2: EVQLVESGGGLVQSGGSLRLSCAASGFTFSRYEMNWVRQAPGKGLEWVAYISNTGTTRDYSDSVKGRFTISRDNAKNSLYLQMSSLRVEDTAVYYCVREKFSGTSDWFDPWGQGTLVTVSS VL: not shown	63	19.5	0.000691	35500	17	158	5.25	0.000519	98900	22	41	7.35	0.000176	24000	66	102	2.79	0.000117	41800	99
bsAb19155D (bispecific antibody, V domains shown, common light chain) VH 1: QVQLVESGGGVVQPGRSLRLSCTASGFTFSSYAMYWVRQAPGKGLEWVSVIYYDGSYKYYADSVKGRFTISRDNSKNTLYLQMDSLRAEDTAVYYCASYNWNYWYFDFWGRGTLVTVSS VH 2: EVQLVESGGGLVQPGGSLRLSCAASGFTFSTYWMNWVRQAPGKGLEWVANIKEDGSEKYYVDSVKGRFTISRDNAKNSLYLQMNSLRAEDTAVYYCAREGFGVVTYIWGQGTMVTVSS VL: not shown	63	20	0.000792	39700	15	155	5.49	0.000565	103000	20	40	6.36	0.000153	24000	76	103	2.9	0.000122	42000	95

Continued by falling Kd [1], values first:

100 nM hLEPR-MMH Bound (RU) [1] [RU]	Kd [1] [nM]	koff [1] [s⁻¹]	kon [1] [M⁻¹ s⁻¹]	t½ [1] [min]	100 nM mfLEPR-MMH Bound (RU) [2] [RU]	Kd [2] [nM]	koff [2] [s⁻¹]	kon [2] [M⁻¹ s⁻¹]	t½ [2] [min]	100 nM hLEPR-MMH Bound (RU) [3] [RU]	Kd [3] [nM]	koff [3] [s⁻¹]	kon [3] [M⁻¹ s⁻¹]	t½ [3] [min]	100 nM mfLEPR-MMH Bound (RU) [4] [RU]	Kd [4] [nM]	koff [4] [s⁻¹]	kon [4] [M⁻¹ s⁻¹]	t½ [4] [min]	Binder
65	19.2	0.000729	37900	16	159	5.64	0.000541	96000	21	40	7.95	0.00018	22600	64	102	2.96	0.000121	40800	96	bsAb19154D (bispecific antibody, V domains shown, common light chain) VH 1: QVQLVESGGGVVQPGRSLRLSCTASGFTFSSYAMYWVRQAPGKGLEWVSVIYYDGSYKYYADSVKGRFTISRDNSKNTLYLQMDSLRAEDTAVYYCASYNWNYWYFDFWGRGTLVTVSS VH 2: QVQLQQSGPGQMKSSQTLTLTCAISGDSVSSNSAIWYWIRQSPSRGLEWLGRTKFRSKWYNDFALSMKSRITINPDTSKNQFSLHLNSVTPEDTAVYYCARYKWELYFDYWGQGTLVTVSS VL: not shown
61	18.4	0.000622	33800	19	154	8.09	0.000506	62500	23	36	7.16	0.000194	27100	60	96	2.65	0.000111	41900	104	bsAb19149D (bispecific antibody, V domains shown, common light chain) VH 1: QVQLVESGGGVVQPGRSLRLSCTASGFTFSSYAMYWVRQAPGKGLEWVSVIYYDGSYKYYADSVKGRFTISRDNSKNTLYLQMDSLRAEDTAVYYCASYNWNYWYFDFWGRGTLVTVSS VH 2: QVQLVESGGGVVQPGRSLRLACAASGFTFRSYGMHWVRQAPGKGLEWVAVIWYDGSNKYYTDSVKGRFTISRDNSKNTLYLQMNSLRAEDTAMYYCAIDKWATVTTYLFDYWGQGTLVTVSS VL: not shown
70	18.3	0.00076	41400	15	167	5.3	0.000554	105000	21	46	7.49	0.000158	21100	73	109	2.74	0.000117	42500	99	bsAb19151D (bispecific antibody, V domains shown, common light chain) VH 1: QVQLVESGGGVVQPGRSLRLSCTASGFTFSSYAMYWVRQAPGKGLEWVSVIYYDGSYKYYADSVKGRFTISRDNSKNTLYLQMDSLRAEDTAVYYCASYNWNYWYFDFWGRGTLVTVSS VH 2: EVQLVESGGGLVQPGGSLRLSCAASGFTFSSYAMNWVRQAPGKGLEWVSAISGSGDSTYYTDSVKGRFTISRDNSKNTLYLQMNTLRAEDTAVYYCAKEEIVMLVGATPGWFDPWGQGTLVTVSS VL: not shown
